According to patent publication US20180355338A1:

Experiments:
[1] = biological target: TY-145 protease variant S173P, S175P, I178Y, F180Y (Bacillus sp. TY-145); experiment: Ki fitted from Suc-AAPF-pNA activity; Model B detergent; ratio against m3 (without I178Y)
[2] = biological target: TY-145 protease variant S173P, S175P, I178P, F180Y (Bacillus sp. TY-145); experiment: Ki fitted from Suc-AAPF-pNA activity; Model B detergent; ratio against m3 (without I178P)
[3] = biological target: TY-145 protease variant S173P, S175P, F180Y, L184D (Bacillus sp. TY-145); experiment: Ki fitted from Suc-AAPF-pNA activity; Model B detergent; ratio against m3 (without L184D)
[4] = biological target: TY-145 protease variant S173P, S175P, F180Y, R224D (Bacillus sp. TY-145); experiment: Ki fitted from Suc-AAPF-pNA activity; Model B detergent; ratio against m3 (without R224D)
[5] = biological target: TY-145 protease variant S173P, S175P, F180Y, L184W (Bacillus sp. TY-145); experiment: Ki fitted from Suc-AAPF-pNA activity; Model B detergent; ratio against m3 (without L184W)
[6] = biological target: TY-145 protease variant K146F, S173P, S175P, F180Y (Bacillus sp. TY-145); experiment: Ki fitted from Suc-AAPF-pNA activity; Model B detergent; ratio against m3 (without K146F)
[7] = biological target: TY-145 protease variant K146N, S173P, S175P, F180Y (Bacillus sp. TY-145); experiment: Ki fitted from Suc-AAPF-pNA activity; Tris buffer pH 8; ratio against m3 (without K146N)
[8] = biological target: TY-145 protease variant S114Q, S173P, S175P, F180Y (Bacillus sp. TY-145); experiment: Ki fitted from Suc-AAPF-pNA activity; Tris buffer pH 8; ratio against m3 (without S114Q)
[9] = biological target: TY-145 protease variant S27K, S173P, G174K, S175P, F180Y, L184F, Q198E, N199K, T297P (Bacillus sp. TY-145); experiment: Ki fitted from Suc-AAPF-pNA activity; Model B detergent; ratio against m8 (without L184F)
[10] = biological target: TY-145 protease variant I150A, S173P, S175P, F180Y (Bacillus sp. TY-145); experiment: Ki fitted from Suc-AAPF-pNA activity; Model B detergent; ratio against m3 (without I150A)
[11] = biological target: TY-145 protease variant S173P, S175P, F180Y, R224S (Bacillus sp. TY-145); experiment: Ki fitted from Suc-AAPF-pNA activity; Model B detergent; ratio against m3 (without R224S)
[12] = biological target: TY-145 protease variant K146N, S173P, S175P, F180Y (Bacillus sp. TY-145); experiment: Ki fitted from Suc-AAPF-pNA activity; Model B detergent; ratio against m3 (without K146N)
[13] = biological target: TY-145 protease variant S27K, S171N, S173P, G174R, S175P, F180Y, G182A, L184F, Q198E, N199K, R224G, T297P (Bacillus sp. TY-145); experiment: Ki fitted from Suc-AAPF-pNA activity; Model B detergent; ratio against m13 (without R224G)
[14] = biological target: TY-145 protease variant K146F, S173P, S175P, F180Y (Bacillus sp. TY-145); experiment: Ki fitted from Suc-AAPF-pNA activity; Tris buffer pH 8; ratio against m3 (without K146F)
[15] = biological target: TY-145 protease variant K146T, S173P, S175P, F180Y (Bacillus sp. TY-145); experiment: Ki fitted from Suc-AAPF-pNA activity; Tris buffer pH 8; ratio against m3 (without K146T)
[16] = biological target: TY-145 protease variant K146W, S173P, S175P, F180Y (Bacillus sp. TY-145); experiment: Ki fitted from Suc-AAPF-pNA activity; Model B detergent; ratio against m3 (without K146W)
[17] = biological target: TY-145 protease variant S27K, S171D, S173P, G174R, S175P, G182A, L184F, Q198E, N199K, R224G, T297P (Bacillus sp. TY-145); experiment: Ki fitted from Suc-AAPF-pNA activity; Model B detergent; ratio against m12 (without R224G)
[18] = biological target: TY-145 protease variant S27K, V162T, S173P, G174K, S175P, F180Y, L184F, Q197K, Q198E, T297P (Bacillus sp. TY-145); experiment: Ki fitted from Suc-AAPF-pNA activity; Model B detergent; ratio against m14 (without L184F)
[19] = biological target: TY-145 protease variant I150A, S173P, S175P, F180Y (Bacillus sp. TY-145); experiment: Ki fitted from Suc-AAPF-pNA activity; Tris buffer pH 8; ratio against m3 (without I150A)
[20] = biological target: TY-145 protease variant I150N, S173P, S175P, F180Y (Bacillus sp. TY-145); experiment: Ki fitted from Suc-AAPF-pNA activity; Tris buffer pH 8; ratio against m3 (without I150N)
[21] = biological target: TY-145 protease variant S27K, K146P, S148R, A151R, S171N, S173P, G174R, S175P, F180Y, Q198E, N199K, T297P (Bacillus sp. TY-145); experiment: Ki fitted from Suc-AAPF-pNA activity; Model B detergent; ratio against m5 (without A151R)
[22] = biological target: TY-145 protease variant S27K, I121V, S171N, S173P, G174R, S175P, F180Y, L184F, Q198E, T297P (Bacillus sp. TY-145); experiment: Ki fitted from Suc-AAPF-pNA activity; Model B detergent; ratio against m6 (without L184F)
[23] = biological target: TY-145 protease variant S173P, S175P, I178F, F180Y (Bacillus sp. TY-145); experiment: Ki fitted from Suc-AAPF-pNA activity; Model B detergent; ratio against m3 (without I178F)
[24] = biological target: TY-145 protease variant S114Q, S173P, S175P, F180Y (Bacillus sp. TY-145); experiment: Ki fitted from Suc-AAPF-pNA activity at 8 inhibitor concentrations; Model B detergent; ratio against m3 (without S114Q)

Z-Gly-Ala-NHCH(CH2C6H4pOH)C(OH)(SO3Na)-H, wherein Z is benzyloxycarbonyl (peptide)
relative Ki mutation [1]: 0.53
relative Ki mutation [2]: 0.51
relative Ki mutation [3]: 0.37
relative Ki mutation [4]: 0.36
relative Ki mutation [5]: 0.5
relative Ki mutation [6]: 0.25
relative Ki mutation [7]: 0.91
relative Ki mutation [8]: 0.34
relative Ki mutation [9]: 0.36
relative Ki mutation [10]: 0.5
relative Ki mutation [11]: 0.5
relative Ki mutation [12]: 0.93
relative Ki mutation [13]: 0.69
relative Ki mutation [14]: 0.19
relative Ki mutation [15]: 0.06
relative Ki mutation [16]: 0.23
relative Ki mutation [17]: 0.49
relative Ki mutation [18]: 0.17
relative Ki mutation [19]: 0.4
relative Ki mutation [20]: 0.21
relative Ki mutation [21]: 0.75
relative Ki mutation [22]: 0.3
relative Ki mutation [23]: 0.5
relative Ki mutation [24]: 0.63
